Test results as given in IntAct's records for PubMed 24105263.

B1: Vesicle-associated membrane protein-associated protein A (Homo sapiens), Q9P0L0 (parent)
chain: MASASGAMAKHEQILVLDPPTDLKFKGPFTDVVTTNLKLRNPSDRKVCFKVKTTAPRRYCVRPNSGIIDPGSTVTVSVMLQPFDYDPNEKSKHKFMVQTIFAPPNTSDMEAVWKEAKPDELMDSKLRCVFEMPNENDKLNDMEPSKAVPLNASKQDGPMPKPHSVSLNDTETRKLMEECKRLQGEMMKLSEENRHLRDEGLRLRKVAHSDKPGSTSTASFRDNVTSPLPSLLVVIAAIFIGFFLGKFIL
partner: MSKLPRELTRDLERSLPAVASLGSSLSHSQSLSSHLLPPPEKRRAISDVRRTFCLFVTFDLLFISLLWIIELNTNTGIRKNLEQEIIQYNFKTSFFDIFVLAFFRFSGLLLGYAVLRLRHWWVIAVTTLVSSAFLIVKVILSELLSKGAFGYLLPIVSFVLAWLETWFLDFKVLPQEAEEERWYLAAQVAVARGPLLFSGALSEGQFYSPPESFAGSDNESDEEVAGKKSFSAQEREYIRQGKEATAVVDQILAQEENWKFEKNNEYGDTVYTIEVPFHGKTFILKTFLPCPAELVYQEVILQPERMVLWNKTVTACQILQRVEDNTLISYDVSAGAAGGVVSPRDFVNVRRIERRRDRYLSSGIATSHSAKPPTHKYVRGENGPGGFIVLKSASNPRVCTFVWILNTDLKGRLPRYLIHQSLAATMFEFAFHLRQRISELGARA
B2: Vesicle-associated membrane protein-associated protein A (Homo sapiens), Q9P0L0 (parent)
chain: B1 chain
partner: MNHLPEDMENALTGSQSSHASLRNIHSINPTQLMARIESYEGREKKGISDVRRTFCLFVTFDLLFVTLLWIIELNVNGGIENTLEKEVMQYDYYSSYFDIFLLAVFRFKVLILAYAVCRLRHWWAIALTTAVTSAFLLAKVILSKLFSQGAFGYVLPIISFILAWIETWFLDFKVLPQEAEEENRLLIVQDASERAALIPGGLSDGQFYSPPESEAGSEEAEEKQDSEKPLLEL

Variants of: B1
Settings: with STARD3, Q14849-1
With K94D;M96D the “effect of a mutation on the interaction” value was “decreasing interaction strength”.

Variants of: B2
Settings: with STARD3NL
With K94D;M96D the “effect of a mutation on the interaction” value was “decreasing interaction strength”.
